Measured values taken from PMC11508087 (PLOS Pathogens, 2024).

B1: pOA-5 (antibody, V domains shown)
VH: EEKLVESGGGLVQPGGSLRLSCVGSGFIFSSGEITWVRQAPGKGLEWLAYTTIRGTSKYYADSVGGRFTISRDDSQNTATLQMNSLRIEDTARYYCARGKEDAVQGYYGKALDLWGPGIGVVVSS
VL: SSQLTQPPGVSVSLGGTATITCQGGSFGRYYSHWYKQRPGQAPILVIYDDAKRPAGIPDRFSGSTSGNSVTLTITGAQAEDEADYYCQSVDRSGNAKFGGGTHLTVL
B2: pOA-11 (antibody, V domains shown)
VH: EEKVVESGGGLVRPGESLRLSCVAEGVEFGRRSVRWVRQRPGKGLEFVIYMFNDAQSVDIADSVKGRFTISRDNSQNTAYLQMNRLTVEDTGRYFCLTANKWFGPGVEVVVSS
VL: AIVLTQTPLSLSVTPGESVSISCKSTKSVLDTDGTIVLNWYLQRPGQAPQRVIWSTFYRETGVPDRFTGSGSDTDFTLHISRVEAEDVGVYYCQQSRESTSFGAGTKLDLK
B3: pOA-16 (antibody, V domains shown)
VH: EEKLVESGGGLVQPGGSLTLSCVGSGFDFSLYNMIWVRQAPGKGLEWLAGIWESGVQDSYPESMKGRFTISRDNSQNTAYLKIHILGMEDTARYYCASGARCGEDRCIDLWGPGVEVVVSS
VL: QTVIQEPAMKVSPGGTVTLSCAFSSGSVTTSNYPSWFQHTPGQPPRLLMYRTSYRPTGVNSRFSGAISGNKATLTITGAQTTDEADYYCALFLNTITIPFGGGTHLTVL
B4: pOA-12 (antibody, V domains shown)
VH: EEKLVESGGGLVQPGGSLTLSCVGSGFYFSNYEIVWVRQVRGGGLEWISYVSNGGARTSYALSVKGRFTIFRDNSRNTVDLHLNNLRIEDTARYYCVGGGQCLGDNCYSMALWGPGVEVFVSS
VL: QTVIQEPAMSVSLGGTVTLTCAFTSGSVTKTNYPSWFQQTPGQPPRQLIYHTDNQATGVPSRFSGAISGNKATFTITGAQAEDEADYFCCLYRGTTNVPFGGGTRLTVL
B5: pOA-14 (antibody, V domains shown)
VH: EERLVESGGGLVQPGGSLKLSCVASGFDFQKYMINWVRQAPGKGLEWLALIWNDGKQRYYVESAHMRFTISRNNSQNTAYLEMNRLRVEETARYYCARGWGVEKMDLWGPGVEVAVSS
VL: QTVIQEPAMTVSLGGTVTLTCGFSSGSVTGTKYPNWYQQTPGQRPRLLIYSTKIRPTGVPSRFSGAISGNKATLTIMGAGAEDEADYYCSLNQNYKIIFGAGTHLIVL
B6: pOA-4 (antibody, V domains shown)
VH: EEKLVESGGGLVRPGGSLRLSCVGSGFPWNTYSVRWVRQAPMKGLEFVAYIFKNDNDRDYASSVKGRFTISRDNSQNTAYLQMNNLRTEDTAHYYCLLANKYWGPGVEVVVSS
VL: AVVLTQTPVSLTVSVGEPASISCSSSQSLVEDDGSSVLNWYLQKPGQSPQRLIYSAVGRDTGVPDRFSGSGSGTEFTLKISRVEAEDAGVYYCQQSRFSTSFGAGSKLELK
B7: pOA-18 (antibody, V domains shown)
V domain 1: EEKLVESGGGLVQPGGSLRLSCVGSGFTFTNYEIVWVRQAPGRGPEWISYISNGGARKAYATSVRGRFSISRDNSRNTVDLQLNNLKIEDTGRYYCVGGGHCLGDNCYSLSLWGPGVELVVSS
V domain 2: QTVIQEPAMSVSPGGTVTLTCAFYSGSVTSENYPSWFQQTSGQPPREVIYMTDNRPTGVPDRFSGSISGNKATLTITGAQAEDEADYFCMLYKGTTNVPFGGGTHLTVL
B8: pOA-15 (antibody, V domains shown)
VH: EEKLVESGGGLVQPGGSLRLSCVGSGFDLSDYGFSWVRQAPGKGLETMAFIDSRTSSFTTYTVIGVKGRFTIDNDNALQLNSLTSEDTARYFCARGRGSNGPKGLIGAYGMDLWGPGVEVVVSS
VL: QIVIQEPAMSVSLGGTVTLTCAYRSGSVTIKDGPNWYQQTPGQPPRQLIYNTNSRPTGVPSRFSGAISGNKATLTIAGAQAEDEAEYFCILYKNLEEVRFGDGTHLSVV
B9: pOA-1 (antibody, V domains shown)
VH: EENVVESGGGLVRPGGSLRLSCIFSGFTFSTYSVRWVRQAPGKGLEFLTYIFKNVGDIDTADSVKGRFTISRDNSQNTAYLQMNSLRPEDTARYFCLVANKYWGPGVEVLVSS
VL: AIVLTQSPLSLSVSPGDSASISCRSSQSLVEDDGSSVLNWYLQRPGQSPQRLIYSAVGRDAGVPDRFSGSGSGTDFTLTISGVEAEDLGVYYCQQSKVSTTFGAGSKLDLK

What follows are binders tested against FMDV O/18074 146S antigen (Foot-and-mouth disease virus serotype …, strain) (assay: not given). Details: not given.
B1: binds. B2: binds. B3: binds. B4: binds. B5: binds. B6: binds. B7: binds. B8: binds.

The binders below were run against T1, FMDV O/Tibet/99 146S antigen (Foot-and-mouth disease virus serotype …, strain) (assay: BLI; RED96; […] (10 μg/ml) […]; 0.01 M PBS, 0.1% BSA, 0.02% Tween 20; global fit). Details: both partners purified.
T1 construct: copies: + + +
B9 gave a Kd of 0.04 nM.
